Source: paper PMC8185068, “Intracellular artificial supramolecules based on de novo designed Y15 peptides” (Nature Communications, 2021)

Molecular target: the molecule itself
Assay: thioflavin T fluorescence; synthetic peptides 5-50 µM in PBS, incubated 24 h at 37 °C, then 25 µM thioflavin T; fluorescence spectra

B1: Y15 peptide (peptide)
peptide: YEYKYEYKYEYKYEY
notes: de novo designed self-assembling peptide Y15; source: synthetic peptide (Fmoc solid-phase synthesis, RP-HPLC)
Does B1 bind?
Result: binds
